B1: RING finger protein Z (Lymphocytic choriomeningitis virus (strain Armstrong)), P18541 (parent)
chain: MGQGKSREEKGTNSTNRAEILPDTTYLGPLSCKSCWQKFDSLVRCHDHYLCRHCLNLLLSVSDRCPLCKYPLPTRLKISTAPSSPPPYEE

Variants of B1 are the subject of this test. Conditions: with if4e_human EIF4E.
As to MGQGKSREEKGTNSTNRAEILPDTTYLGPLSCKSCWQKFDSLVRCHDHYLCRHCLNLLLSVSDRAPLAKYPLPTRLKISTAPSSPPPYEE [C65A;C68A], the “effect of a mutation on the interaction” value is “decreasing interaction”.

Take MGQGKSREEKGTNSTNRAEILPDTTYLGPLSGKSFWQKFDSLVRCHDHYLCRHCLNLLLSVSDRCPLCKYPLPTRLKISTAPSSPPPYEE [C32G;C35F]: the “effect of a mutation on the interaction” value was “decreasing interaction”.

The record behind these values is IntAct's records for PubMed 11575918.
